B1: SQVLKT (ligand)
chain: APTSSSTKKTQLQLSQLLVLLKTILNGINNYKNPKLTRMLTFKFYMPKKATELKHLQCLEEELKPLEEVLNLAQSKNFHLRPRDLISNINVIVLELKGSETTFMCEYADETATIVEFLNRWITFCQSIISTLT
B2: ΔG27, SQVLKA (ligand)
chain: APTSSSTKKTQLQLSQLLVLLKAILNINNYKNPKLTRMLTFKFYMPKKATELKHLQCLEEELKPLEEVLNLAQSKNFHLRPRDLISNINVIVLELKGSETTFMCEYADETATIVEFLNRWITFCQSIISTLT
B3: G27K, SQVLKA (ligand)
chain: APTSSSTKKTQLQLSQLLVLLKAILNKINNYKNPKLTRMLTFKFYMPKKATELKHLQCLEEELKPLEEVLNLAQSKNFHLRPRDLISNINVIVLELKGSETTFMCEYADETATIVEFLNRWITFCQSIISTLT
B4: G27S, SQVLKA (ligand)
chain: APTSSSTKKTQLQLSQLLVLLKAILNSINNYKNPKLTRMLTFKFYMPKKATELKHLQCLEEELKPLEEVLNLAQSKNFHLRPRDLISNINVIVLELKGSETTFMCEYADETATIVEFLNRWITFCQSIISTLT
B5: R38W, SQVLKA (ligand)
chain: APTSSSTKKTQLQLSQLLVLLKAILNGINNYKNPKLTWMLTFKFYMPKKATELKHLQCLEEELKPLEEVLNLAQSKNFHLRPRDLISNINVIVLELKGSETTFMCEYADETATIVEFLNRWITFCQSIISTLT
B6: R38G, SQVLKA (ligand)
chain: APTSSSTKKTQLQLSQLLVLLKAILNGINNYKNPKLTGMLTFKFYMPKKATELKHLQCLEEELKPLEEVLNLAQSKNFHLRPRDLISNINVIVLELKGSETTFMCEYADETATIVEFLNRWITFCQSIISTLT
B7: M39L, SQVLKA (ligand)
chain: APTSSSTKKTQLQLSQLLVLLKAILNGINNYKNPKLTRLLTFKFYMPKKATELKHLQCLEEELKPLEEVLNLAQSKNFHLRPRDLISNINVIVLELKGSETTFMCEYADETATIVEFLNRWITFCQSIISTLT
B8: M39V, SQVLKA (ligand)
chain: APTSSSTKKTQLQLSQLLVLLKAILNGINNYKNPKLTRVLTFKFYMPKKATELKHLQCLEEELKPLEEVLNLAQSKNFHLRPRDLISNINVIVLELKGSETTFMCEYADETATIVEFLNRWITFCQSIISTLT
B9: F42K, SQVLKA (ligand)
chain: APTSSSTKKTQLQLSQLLVLLKAILNGINNYKNPKLTRMLTKKFYMPKKATELKHLQCLEEELKPLEEVLNLAQSKNFHLRPRDLISNINVIVLELKGSETTFMCEYADETATIVEFLNRWITFCQSIISTLT
B10: ΔT51, SQVLKA (ligand)
chain: APTSSSTKKTQLQLSQLLVLLKAILNGINNYKNPKLTRMLTFKFYMPKKAELKHLQCLEEELKPLEEVLNLAQSKNFHLRPRDLISNINVIVLELKGSETTFMCEYADETATIVEFLNRWITFCQSIISTLT
B11: Q13W SQVLKA (ligand)
chain: APTSSSTKKTQLWLSQLLVLLKAILNGINNYKNPKLTRMLTFKFYMPKKATELKHLQCLEEELKPLEEVLNLAQSKNFHLRPRDLISNINVIVLELKGSETTFMCEYADETATIVEFLNRWITFCQSIISTLT
B12: T51I, SQVLKA (ligand)
chain: APTSSSTKKTQLQLSQLLVLLKAILNGINNYKNPKLTRMLTFKFYMPKKAIELKHLQCLEEELKPLEEVLNLAQSKNFHLRPRDLISNINVIVLELKGSETTFMCEYADETATIVEFLNRWITFCQSIISTLT

Columns and labels:
[1] = target: T1, orthogonal hCD122 receptor (hoRb), hCD122 with H133D and Y134F (human, UniProt P14784 27-550); test: cell-based or functional assay
T1 sequence: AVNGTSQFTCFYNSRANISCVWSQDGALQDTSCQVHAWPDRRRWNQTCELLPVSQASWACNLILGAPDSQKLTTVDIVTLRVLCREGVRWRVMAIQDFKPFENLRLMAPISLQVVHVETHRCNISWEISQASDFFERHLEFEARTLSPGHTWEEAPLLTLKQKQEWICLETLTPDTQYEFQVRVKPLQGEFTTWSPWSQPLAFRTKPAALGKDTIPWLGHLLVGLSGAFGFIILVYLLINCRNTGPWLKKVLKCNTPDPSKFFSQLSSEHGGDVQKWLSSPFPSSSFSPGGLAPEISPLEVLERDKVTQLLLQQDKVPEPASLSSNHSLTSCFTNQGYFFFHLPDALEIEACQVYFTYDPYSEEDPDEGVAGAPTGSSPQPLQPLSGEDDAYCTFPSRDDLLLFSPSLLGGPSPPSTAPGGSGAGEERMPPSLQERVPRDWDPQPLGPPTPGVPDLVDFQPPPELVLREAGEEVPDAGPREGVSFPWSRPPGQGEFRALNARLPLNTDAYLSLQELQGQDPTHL

[2] = target: T1, orthogonal hCD122 receptor (hoRb), …; test: cell-based or functional assay; remark: listed apart in the source
Throughout, for Relative Proliferation Fold Change 3F8 1:10: reference of the scale not given here.
Throughout, for Relative Proliferation Fold Change 3F8 1:2: reference of the scale not given here.
Throughout, for Relative Proliferation Fold Change 3F8 1:50: reference of the scale not given here.
Throughout, for Relative Proliferation Fold Change NKL 1:10: reference of the scale not given here.
Throughout, for Relative Proliferation Fold Change NKL 1:2: reference of the scale not given here.
Throughout, for Relative Proliferation Fold Change NKL 1:50: reference of the scale not given here.

| Binder | NKL Ortho Proliferation Signal 1:2 [1] | NKL Ortho Proliferation Signal 1:10 [1] | NKL Ortho Proliferation Signal 1:50 [1] | Relative Proliferation Fold Change NKL 1:2 [1] [fold] | Relative Proliferation Fold Change NKL 1:10 [1] [fold] | Relative Proliferation Fold Change NKL 1:50 [1] [fold] | 3F8 Ortho Proliferation Signal 1:2 [2] [cts/min] | 3F8 Ortho Proliferation Signal 1:10 [2] [cts/min] | 3F8 Ortho Proliferation Signal 1:50 [2] [cts/min] | Relative Proliferation Fold Change 3F8 1:2 [2] [fold] | Relative Proliferation Fold Change 3F8 1:10 [2] [fold] | Relative Proliferation Fold Change 3F8 1:50 [2] [fold] |
| --- | --- | --- | --- | --- | --- | --- | --- | --- | --- | --- | --- | --- |
| B1 | 61400 | 63400 | 33400 | 4.68 | 4.52 | 2.5 | 46400 | 54400 | 28500 | 22.9 | 54.9 | 37.8 |
| B2 | 46600 | 31400 | 14600 | 3.29 | 2.05 | 1.04 | 28400 | 21900 | 6730 | 105 | 30.4 | 10.2 |
| B3 | 36300 | 30600 | 15200 | 2.93 | 1.94 | 1.03 | 37800 | 23700 | 10300 | 170 | 47.9 | 7.82 |
| B4 | 48900 | 41000 | 20700 | 4.21 | 2.94 | 1.53 | 40200 | 34700 | 15200 | 94 | 33 | 24.6 |
| B5 | 36700 | 23800 | 11500 | 2.74 | 1.51 | 0.77 | 40400 | 41100 | 24200 | 94.4 | 57.3 | 21.4 |
| B6 | 20100 | 18100 | 9740 | 1.78 | 1.19 | 0.67 | 27200 | 32100 | 14200 | 47.5 | 21.6 | 8.42 |
| B7 | 57600 | 44100 | 21800 | 4.47 | 2.84 | 1.49 | 31200 | 24600 | 12200 | 179 | 76.7 | 37.1 |
| B8 | 42800 | 31300 | 15300 | 2.72 | 1.85 | 0.92 | 29200 | 22900 | 9630 | 110 | 51.3 | 16.7 |
| B9 | 11900 | 10500 | 8730 | 0.83 | 0.6 | 0.52 | 10300 | 5760 | 1570 | 43.5 | 12.7 | 2.2 |
| B10 | 12100 | 10100 | 7780 | 1 | 0.71 | 0.58 | 9940 | 7070 | 1060 | 59.1 | 8.73 | 2.17 |
| B11 | 13700 | 12900 | 8730 | 1.24 | 0.84 | 0.63 | 27000 | 16900 | 6420 | 148 | 22.2 | 10.9 |
| B12 | 50800 | 37900 | 18500 | 3.57 | 2.64 | 1.4 | 31900 | 20200 | 11600 | 111 | 43.1 | 15.6 |

— patent US20210196796A1 (SYNTHEKINE, published 2021)
